The target of the assay is T1, purified recombinant TRIP6 (UniProt Q15654 1-476).
T1 construct: TRIP6; source: purified recombinant protein
T1 sequence (looked up): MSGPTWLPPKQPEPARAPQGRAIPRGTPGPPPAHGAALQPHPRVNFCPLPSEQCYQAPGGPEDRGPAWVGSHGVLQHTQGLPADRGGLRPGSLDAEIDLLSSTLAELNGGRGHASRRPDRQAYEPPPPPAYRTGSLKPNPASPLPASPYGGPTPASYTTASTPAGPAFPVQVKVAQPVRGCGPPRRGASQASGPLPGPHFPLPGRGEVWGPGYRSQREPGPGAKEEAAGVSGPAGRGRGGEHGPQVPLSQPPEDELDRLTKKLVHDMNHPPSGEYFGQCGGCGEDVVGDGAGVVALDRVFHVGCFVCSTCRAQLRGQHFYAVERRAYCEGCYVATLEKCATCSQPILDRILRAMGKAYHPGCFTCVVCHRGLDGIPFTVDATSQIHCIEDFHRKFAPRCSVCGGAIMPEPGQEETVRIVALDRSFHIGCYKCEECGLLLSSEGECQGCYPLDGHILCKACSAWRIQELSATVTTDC
In words: pull-down; purified recombinant TRIP6 incubated with GST, GST-TRAF6 or GST-CT, 4 °C, 3 h; anti-TRIP6 immunoblot. To be noted: both partners purified.

B1: GST-CT mutant containing residues 239–530 of TRAF6 (domain or fragment, UniProt P70196 239-530, looked up)
chain: PIPCTFSVFGCHEKMQRNHLARHLQENTQLHMRLLAQAVHNVNLALRPCDAASPSRGCRPEDPNYEETIKQLESRLVRQDHQIRELTAKMETQSMYVGELKRTIRTLEDKVAEMEAQQCNGIYIWKIGNFGMHLKSQEEERPVVIHSPGFYTGRPGYKLCMRLHLQLPTAQRCANYISLFVHTMQGEYDSHLPWPFQGTIRLTILDQSEALIRQNHEEVMDAKPELLAFQRPTIPRNPKGFGYVTFMHLEALRQGTFIKDDTLLVRCEVSTRFDMGGLRKEGFQPRSTDAGV
notes: TRAF6 carboxyl-terminal domain, residues 239-530; also called TRAF6-CT domain; carboxyl-terminal domain; source: purified recombinant GST-tagged protein (pGEX-6P3)
Consider B1, for which the binding result was “binds”.

(Values after article PMC4850058, “TRIP6 antagonizes the recruitment of A20 and CYLD to TRAF6 to promote the LPA2 receptor-mediated TRAF6 activation” (Cell Discovery, 2016).)
